# Reference: US20210032351A1 (XDCEXPLORER SHANGHAI, published 2021)
# How the values were obtained:
# [1] = target: T1, human wild-type EGFR protein on the cell surface (human, UniProt P00533 25-1210); assay: FACS, MFI on A431 cells over MFI on normal primary hepatocytes
# T1 construct: whole, on cells; Endogenous on A431, HEB, U87MG cells and normal human primary hepatocytes; transfected on CHOk1-EGFR cells; The cell is named under assay; also called A431; HEB
# Description: (§1) The preparation of U87MG-EGFRvIII required for FACS detection is as described in the preparation of the immunogen B in example 1. Normal human primary hepatocytes are purchased from BioreclamationIVT, and A431 tumor cells are purchased from ATCC. The recovered hepatocytes are directly used for FACS detection, and the recovered U87MG-EGFRvIII and A431 cells are subjected to an expanded culture to 90% confluence in a T-75 cell culture flask; the medium is sucked out, and the cells are washed twice with a HBSS buffer (Hanks Balanced Salt Solution) (purchased from Invitrogen), and then treated with an enzyme-free cell dissociation solution (Versene solution: purchased from Life Technology) and collected. The cells are washed twice with the HBSS buffer and are counted, and then the cells are diluted with the HBSS buffer to 2×10⁶ cells/ml, added with 1% goat serum blocking solution, with the percentage being the mass percentage, and incubated on ice for 30 minutes, and then centrifugally washed twice with the HBSS buffer. The collected cells are resuspended to 2×10⁶ cells/mL with an FACS buffer (HBSS+2% FBS, with the percentage being the volume percentage), added to a 96-well FACS reaction plate at 100 μL/well, then added with 100 μL/well of the purified EGFRvIII antibody (samples to be tested) obtained in example 12, and incubated on ice for 2 hours. The plate is centrifugally washed twice with the FACS buffer, added with 100 μL/well of a 1:1000 diluted fluorescence (Alexa 488) labeled secondary antibody (purchased from Invitrogen), and incubated on ice for 1 hour. The plate is centrifugally washed 3 times with the FACS buffer, added with 100 μL/well of a fixing solution [4% (v/v) paraformaldehyde] to resuspend the cells, and centrifugally washed twice with the FACS buffer after 10 minutes. The cells are resuspended in 100 μL of the FACS buffer, and the results are detected and analyzed by FACS (FACS Calibur, purchased from BD). Data analysis is performed by using the software (CellQuest) to obtain the mean fluorescence intensity (MFI) of the cells. Data is further analyzed by using the software (GraphPad Prism5) to perform data fitting and calculate EC50.
# [2] = target: T1, human wild-type EGFR protein on the …; assay: FACS on normal human primary hepatocytes
# Description: as §1
# [3] = target: T2, human EGFRvIII-hFc protein (human, UniProt P00533 25-645); assay: ELISA, EGFRvIII-hFc coated
# T2 construct: extracellular domain; also called immunogen A; hFc-tagged EGFRvIII protein; not shown: human IgG Fc fragment (hFc) of the pCpC vector
# Description: The purified humanized anti-EGFRvIII antibody obtained in example 12 is reacted with a human EGFRvIII-hFc protein.
# (§2) The purified immunogen A (EGFRvIII-hFc) obtained in example 1 (for the preparation method, see step (I) in example 1) is diluted with PBS to a final concentration of 1.0 μg/mL, and then added to a 96-well ELISA plate at 100 μl/well. The plate is sealed with a plastic film and incubated at 4° C. overnight. The next day, the plate is washed twice with a plate washing solution [PBS+0.01% (v/v) Tween20], and added with a blocking solution [PBS+0.01% (v/v) Tween20+1% (w/w) BSA] for blocking 2 hours at room temperature. […] The plate is incubated for 2 hours at 37° C., and then washed 3 times with the plate washing solution [PBS+0.01% (v/v) Tween20]. The plate is added with an HRP (horseradish peroxidase) labeled secondary antibody (purchased from Sigma), incubated at 37° C. for 2 hours, and then washed 3 times with the plate washing solution [PBS+0.01% (v/v) Tween20]. The plate is added with 100 μl of TMB substrate/well, incubated for 30 minutes at room temperature, and then added with 100 μl of stopping solution (1.0N HCl)/well. A450 nm value is read using an ELISA plate reader (SpectraMax 384plus, purchased from Molecular Device).
# [4] = target: T3, human EGFRvIII protein on the cell surface (human, UniProt P00533 25-1210); assay: FACS on U87MG-EGFRvIII cells
# T3 construct: whole, on cells; the cell line is named under assay; also called hEGFRvIII; U87MG-hEGFRvIII
# Description: as §1
# [5] = target: T1, human wild-type EGFR protein on the …; assay: FACS on A431 tumor cells
# Description: as §1
# [6] = target: T3, human EGFRvIII protein on the cell …; assay: cell-based or functional assay
# [7] = target: T4, human EGFRvIII-hFc protein (human, UniProt P00533 25-645); assay: ELISA, plate coated with human EGFRvIII-hFc, HRP secondary antibody, absorbance at 450 nm
# T4 construct: extracellular domain; made in HEK293 cells, purified on protein A; also called immunogen A; hFc-tagged EGFRvIII protein; not shown: human IgG Fc fragment (hFc) of the pCpC vector
# Description: as §2, with “Device), and the results are shown in FIG. 11 and table 19.” for “Device).”
Binder,Selective window (MFI A431/Hepatocytes) [1] [fold],MFI [2] [MFI],EC50 [3] [nM],Maximum OD450 value [3] [OD450],EC50 [4] [nM],Maximum mean fluorescence intensity [4] [MFI],MFI [5] [MFI],EC50 (read off the curve) [7] [nM],"IC50, nM; cell killing of U87MG-hEGFRvIII (CellTiter-Glo, 5 days) [6] [nM]"
"Humanized antibody h75G7C6-16 (antibody, human IgG1, V domains shown, also called VH-g2/VL-g3) VH: QVQLVQSGAEVKKPGASVKVSCKASGYTFTDYNMDWVKQAPGQGLEWIGDINPNNADTIYNQKFKGRVTLTVDKSTSTVYMELSSLRSEDTAVYYCARGDYDGYYPVYYAMDYWGQGTTVTVSS VL: ENVLTQSPATLSLSPGERATLSCRASSSVSSSYLHWYQQKPGQSPRLLIFSTSNLAAGVPARFSGSGSGTDYTLTISSLEPEDFAVYYCQQYSGYPLTFGGGTKVEIK",46.2,269,0.27,2.97,6.74,18900,12400,–,–
"Chimeric antibody 63A10-MMAF (antibody, human IgG1, V domains shown, MC-MMAF coupled after TCEP reduction (sites not given); DAR 3.10 for the antibody) VH: QVQLQQSGAELARPGASVKMSCKASGYTFISFTMHWVKQRPGQGLEWIGYINPNSGYTKYNQKFKDKATLTAGQSSSTAYMQLSSLTSEDSAVYYCTRGGGRGFAYWGQGTLVTVSA VL: DILMTQSPSSMSVSLGDTVTITCHASQDINSNIGWLQQKPGKSFKALIYHGTNLEDGVPSRFSGSGSGADYSLTISSLESEDFADYYCVQYAQFPFTFGSGTKLEIK",–,–,–,–,–,–,–,–,0.01
"Chimeric antibody 64F1-MMAF (antibody, human IgG1, V domains shown, MC-MMAF coupled after TCEP reduction (sites not given); DAR 4.05 for the antibody) VH: QVQLQQSGAELARPGASVKMSCKASGYTFSSYTMHWAKQRPGQGLEWIGYINPSSGYTKYNQKFKDKATLTADKSSSTAYMQLSSLTSEDSIVYYCARGGGRGFAYWGQGTLVTVSA VL: QIVLTQSPAIMSASPGERVTMTCSASSSVSYMYWYQQKPGSSPRLLIYDTSNLASGVPVRFSGSGSGTSYSLTISRVEAEDAATYYCQQWSSYSLTFGAGTKLELK",–,–,–,–,–,–,–,–,0.01
"Chimeric antibody 7E5-MMAF (antibody, human IgG1, V domains shown, MC-MMAF coupled after TCEP reduction (sites not given); DAR 3.51 for the antibody) VH: EIQLQQSGPELVKPGASVKVSCKASGYSFTDYNMYWVKQSHGKSLEWIGYVDPSNGGTNYNQKFKGKATLTVDKSSSTAFMHLNSLTSEDSAVYYCARGFFDYWGQGTTLTVSS VL: DIVMTQSPSSLTVTAGEKVTMSCKSSQSLLNSGNQKNYLTWYQQKPGQPPKLLIYWASNRESGVPDRFTGSGSGKDFTLTISSVQAEDLAVYYCQNDYRYPVTFGAGTKLELK",–,–,–,–,–,–,–,–,0.04
"Chimeric antibody 75G7-MMAF (antibody, human IgG1, V domains shown, MC-MMAF coupled after TCEP reduction (sites not given); DAR 3.40 for the antibody) VH: EVQLQQSGPELVKPGASVKIPCKASGYTFTDYNMDWVKQSHGKSLEWIGDINPNNGDTIYNQKFKGKATLTVDKSSSTAYMELRSLTSEDTAVYYCARGDYDGYYPVYYAMDYWGQGTSVTVSS VL: ENVLTQSPAIMSASPGEKVTMTCRASSSVSSSYLHWYQQKSGASPKLWIFSTSNLAAGVPARFSGSGSGTSYSLTVSSVEAEDAATYYCQQYSGYPLTFGAGTKLELK",–,–,–,–,–,–,–,–,0.27

# Second part, led by results:
Selective window (MFI A431/Hepatocytes) [1] [fold],MFI [2] [MFI],EC50 [3] [nM],Maximum OD450 value [3] [OD450],EC50 [4] [nM],Maximum mean fluorescence intensity [4] [MFI],MFI [5] [MFI],EC50 (read off the curve) [7] [nM],Binder,"IC50, nM; cell killing of U87MG-hEGFRvIII (CellTiter-Glo, 5 days) [6] [nM]"
44.7,256,0.48,3.16,6.77,18700,11500,–,"Humanized antibody h75G7C6-13 (antibody, human IgG1, V domains shown, also called VH-g2/VL-g0) VH: QVQLVQSGAEVKKPGASVKVSCKASGYTFTDYNMDWVKQAPGQGLEWIGDINPNNADTIYNQKFKGRVTLTVDKSTSTVYMELSSLRSEDTAVYYCARGDYDGYYPVYYAMDYWGQGTTVTVSS VL: EIVLTQSPATLSLSPGERATLSCRASSSVSSSYLHWYQQKPGQAPRLLIYSTSNLAAGIPARFSGSGSGTDFTLTISSLEPEDFAVYYCQQYSGYPLTFGGGTKVEIK",–
46.2,248,0.32,3.03,6.37,18500,11500,–,"Humanized antibody h75G7C6-14 (antibody, human IgG1, V domains shown, also called VH-g2/VL-g1) VH: QVQLVQSGAEVKKPGASVKVSCKASGYTFTDYNMDWVKQAPGQGLEWIGDINPNNADTIYNQKFKGRVTLTVDKSTSTVYMELSSLRSEDTAVYYCARGDYDGYYPVYYAMDYWGQGTTVTVSS VL: ENVLTQSPATLSLSPGERATLSCRASSSVSSSYLHWYQQKPGQAPRLLIFSTSNLAAGIPARFSGSGSGTDYTLTISSLEPEDFAVYYCQQYSGYPLTFGGGTKVEIK",–
45.3,287,0.29,3.19,6.45,18900,13000,–,"Humanized antibody h75G7C6-15 (antibody, human IgG1, V domains shown, also called VH-g2/VL-g2) VH: QVQLVQSGAEVKKPGASVKVSCKASGYTFTDYNMDWVKQAPGQGLEWIGDINPNNADTIYNQKFKGRVTLTVDKSTSTVYMELSSLRSEDTAVYYCARGDYDGYYPVYYAMDYWGQGTTVTVSS VL: ENVLTQSPATLSLSPGERATLSCRASSSVSSSYLHWYQQKPGQSPRLLIFSTSNLAAGIPARFSGSGSGTDYTLTISSLEPEDFAVYYCQQYSGYPLTFGGGTKVEIK",–
–,–,–,–,–,–,–,~0.01,"Chimeric antibody 64F1 (antibody, human IgG1, V domains shown, also called 64F1F8 (chimeric)) VH: QVQLQQSGAELARPGASVKMSCKASGYTFSSYTMHWAKQRPGQGLEWIGYINPSSGYTKYNQKFKDKATLTADKSSSTAYMQLSSLTSEDSIVYYCARGGGRGFAYWGQGTLVTVSA VL: QIVLTQSPAIMSASPGERVTMTCSASSSVSYMYWYQQKPGSSPRLLIYDTSNLASGVPVRFSGSGSGTSYSLTISRVEAEDAATYYCQQWSSYSLTFGAGTKLELK",–
–,–,–,–,–,–,–,~0.05,"Chimeric antibody 75G7 (antibody, human IgG1, V domains shown, also called c75G7C6; wild-type chimeric antibody c75G7C6) VH: EVQLQQSGPELVKPGASVKIPCKASGYTFTDYNMDWVKQSHGKSLEWIGDINPNNGDTIYNQKFKGKATLTVDKSSSTAYMELRSLTSEDTAVYYCARGDYDGYYPVYYAMDYWGQGTSVTVSS VL: ENVLTQSPAIMSASPGEKVTMTCRASSSVSSSYLHWYQQKSGASPKLWIFSTSNLAAGVPARFSGSGSGTSYSLTVSSVEAEDAATYYCQQYSGYPLTFGAGTKLELK",–
